These results are taken from a protein production outcome set (Wang et al. 2014).
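Note: failed if final PepcDB status was selected cloned or expressed and not failed if soluble or beyond.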

The nature of the data set: label from the status in PepcDB records.
For “MEKKVHYKMYKAGKKWVFVMLSTVALTGIMVMSGNIAKADAVAQSSTEQVAKIDTTSATTTSTQATAQVEKATNNVNESNAAQTSATTTTEQSSVNAGATSSSQNNKQATTTSVAASQNTSVANKDQVSSTQSSTTQNSEEPKVETPVNTADNASQKNVNGNWYLVDNNTGKNLTGFQEIKYQNKVVYYAPSNAQMQYGWQDINNNRYYFDTFDGAMTTGQKNINGNWYMFDAQGVLQTGFQRIESQNKTVYYSEDKDKLGQMQYGQKNIKGNWYNFDTYDGAMKTGFVTIPSQNKTVYYSEDKAKLGQMQYGKTKVNGKTYYFDTYDGAMKKGLTNINGNYYYFDNSGVMATNQKNINGNWYMFNDQGIMQTGFVHIPSQGKTVYYSKDKDKLGQMLYGQKNINGRWYNFDTYDGAMKTGFVYIPSQNKTVYYDENQSTLGQMKYGFQNINGKTYYLDTFDGSMKTGQKNINGNWYMFDDKGVMKVGFVTIPSQNKTVYYSEDKAKLGQMQYGKTGIKGKTYYFDTFDGAMKTGVFYNKETGTLQYYGNNGQMNYGNVVINGKVYAFDAAGNYLGKGNVTIDGHDYYLGNNNQVLVGFQKISNNTYYYNKDNGQKEYGQKNIDGSWYMFDDKTGIMKTGFVTIPSQNKTVYYGNNGQMQYGQRNIDGHWYMFDTYNGAMKTGLVYIPEQNKTVYYGSNGQMQYGVFRVGKITYTADHISGAIIGVYNDAEVIGQNPELPTGCEITAVTMMLRYAGANINKIQLANEMPRSNNGDYGFVGNPFSVTGWWVFPTGVAPVVNKHLGHSQVMTGASLESIKNKLLNGHLVVAWVANMNGFVNHAIALTGYNGNTLYYNNPWTARKESMSVSSFYTHWNADKQRALSY”, the protein production entry is “failed”.
As for “MEKLKSLIPEDLLQTVKSSSVDDLLSTSSSLLRLFLGLPQFHQAVSELANPELGCCGKNEETSLDLKRRGNHCFRSRDFDEALRLYSKALRVAPLDAIDGDKSLLASLFLNRANVLHNLGLLKESLRDCHRALRIDPYYAKAWYRRGKLNTLLGNYKDAFRDITVSMSLESSLVGKKQLQNELKAIPDYQNNQTLEHDEYRPSNDAGVDHLPSVQMEVKLRCVSTKEKGRGMVSECDIEEASVIHVEEPFSVVISKSCRETHCHFCLNELPADTVPCPSCSIPVYCSESCQIQSGGMLSTNEMDKHHIFQKLPDDIVEHIKGVTSADIYYFATDLIQEHQHECRGANWPAVLPSDAVLAGRIIMKLINQGKAATDLSNLQEILELSHTYSKMNPENKLELHLLSIVLIWCLSKSSCPNLSVCEASVTQTIILLSQIKVNSIAVARMKSSGDSFKCLPSGNISTKEPIQSLEQIRVGQALYKTGSLFNHSCKPNIHLYFLSRGLIMQTTEFVPTGCPLELSYGPEVGKWDCKNRIRFLEEEYFFHCRCRGCAQINISDLVINGYGCVNTNCTGVVLDSNVATCESEKLNHFFTAPRNVDQQVQMREKVYADVGEVASSLLSKPSGSLHIEPEICLKCGSRCDIENSHAEVNKAWNHMRRVEELMNSGRANYSVLSDCSRSIAVLRTFLHMYNKDIADAEDKVAQACYLAGELVDARKHCEASIKILKRLYEDEHVVIGNEMVKLASIQLASGDSSGAWDTTKRSSQIFSKYYGSHAETLFSYLPCLKQETAKAVNLSTS”, the protein production result is recorded as “failed”.
Take “MEKLSAIKKPDINVADAWEQYWNKTLVNSTPVLWDANVERAVVVDLPRFELLFNPELPLIDFACGNGTQTKFLSQFFPRVIGLDVSKSALEIAAKENTAANISYRLLDGLVPEQAAQIHSEIGDANIYMRTGFHHIPVEKRELLGQSLRILLGKQGAMYLIELGTGCIDFFNSLLEKYGQLPYELLLVMEHGIRPGIFTAEDIELYFPDFEILSQGEGLFQSIHKLPDGNYATPPAFWAVIKHR”: the protein production result is reported as “not failed”.
For “MEKLVLGIIGIFFVISGFDYINNNKLGLGDKFKEGMISMGSIAISMVGIYSLSPLIGEGIGFLLTPISNFLGIDSSIFPSMFLAVDMGALGIAESLSSNIHMYWISGVIIASTLGATISFSIPLALGIIEEKYLEDLTTGLLYGIMTLPIAPIVAGLFLGVDIKLLLFNILPLIIFAILLAVFMNKFKDTTVKFFIKLGKLIQLVSILGLLVLGFLSIIGIKPIGSILPIDEALSVVGKIAIFLGGAYPLINFITEKFSKVLSKIGEKINIDEFSIAAFLGTLASNIILFQSFNKMSSKGRIALTAFSVSGAFVIGGQLGFVSLKTPEIINIYIASKLIAGITAMVVALIVHRKTEENLNDESQSEENIPVLES”, the protein production result is on record as “failed”.
With “MEKPIKTQWQLLMDNRNRFFWLLQAGGWIGYALVNYIGSLMHEMRDIYTLIIILGAYAGFLSTIPLRYLYRRIWEFPPALMVLIAIVVSYVTAVAWAIVDNATYWEIYKFGFRPDSPFFYLKNSLAKFYIILSWSGLYFGIKYYQMLQEEKQKALLASSMAHQAQLKMLRYQLNPHFLFNTLNAISTLILLKENEKANLMVNKLSHFLRFSLDNEPIKKVTLEKEVDALLLYLDIEKVRFDEQLEIDIHLSDETKNALVPSLICQPLIENSIKYAISNVEGVGKIRVRSWSEKENLILEVCDNGPKIETDPEKLFRKDGVGLNNTRQRLKSLYGKQYRFEMLKGAESGLCVRITIPMEMLESQR”, the protein production result is on record as “failed”.
The same measure for “MEKRFYILTIVVEDREKAYRQVNELLHNFSEDILLRVGYPVREENMAIIFLVLKTDNDTIGALSGKLGQISGVRVKTVPLKR”: “not failed”; for “MEKYFGNAYRGDPGVPHADADRFVNIWIGSAAFSVLTWVNPYMWQLSNQFKYFSLSLSLELSNSNLGTFGFSCLISELGFLFMCFCSSLNCSGENYVLILLV”: “failed”; for “MEKYILSIDQGTTSSRAILFNQKGEIAGVAQREFKQYFPQSGWVEHDANEIWTSVLAVMTEVINENDVRADQIAGIGITNQRETTVVWDKHTGRPIYHAIVWQSRQTQSICSELKQQGYEQTFRDKTGLLLDPYFAGTKVKWILDNVEGAREKAENGDLLFGTIDTWLVWKLSGKAAHITDYSNASRTLMFNIHDLEWDDELLELLTVPKNMLPEVKASSEVYGKTIDYHFYGQEVPIAGVAGDQQAALFGQACFERGDVKNTYGTGGFMLMNTGDKAVKSESGLLTTIAYGIDGKVNYALEGSIFVSGSAIQWLRDGLRMINSAPQSESYATRVDSTEGVYVVPAFVGLGTPYWDSEARGAIFGLTRGTEKEHFIRATLESLCYQTRDVMEAMSKDSGIDVQSLRVDGGAVKNNFIMQFQADIVNTSVERPEIQETTALGAAFLAGLAVGFWESKDDIAKNWKLEEKFDPKMDEGEREKLYRGWKKAVEATQVFKTE”: “failed”.
The same measure for “MELAVGNLSEGNASCPEPPAPEPGPLFGIGVENFVTLVVFGLIFALGVLGNSLVITVLARSKPGKPRSTTNLFILNLSIADLAYLLFCIPFQATVYALPTWVLGAFICKFIHYFFTVSMLVSIFTLAAMSVDRYVAIVHSRRSSSLRVSRNALLGVGCIWALSIAMASPVAYHQGLFHPRASNQTFCWEQWPDPRHKKAYVVCTFVFGYLLPLLLICFCYAKVLNHLHKKLKNMSKKSEASKKKTAQTVLVVVVVFGISWLPHHIIHLWAEFGVFPLTPASFLFRITAHCLAYSNSSVNPIIYAFLSENFRKAYKQVFKCHIRKDSHLSDTKENKSRIDTPPSTNCTHV”: “failed”; for “MELDMGKVITAKRKEKSWTQEQLAQAVGVSTPAVSKWETGATYPDITLLPPIARALNTTVDELFSYQNELSDNDVSGFTQKATSLYEAEGFDAGWNYCQKLLQEFPNSIPLKFYLGNLFQSFMIMKTDLGKEDIQSCYRQAAILYEEVLLSGYPKFTYHATLILVGFYTMLNELDRAEELLDSLPKLKTDPDFLYPSIYALRGKNEEAMKLTQENIRRYISRVSHGLSLLGAFAREQEDMDKACTLAKMNLEITKLLGISREIAYADMIKIMVARGDKEAALTYLEEYTQHILELSYDYAKSPVFNRVTEKFQDPSYVKKVLAQSILIDKEYTPLKEEPRYLQIVHRLRQVIDTQTHTFRE”: “failed”.
The same measure for “MELENIVANTVLLKAREGGGGNRKGKSKKWRQMLQFPHISQCEELRLSLERDYHSLCERQPIGRLLFREFCATRPELSRCVAFLDGVAEYEVTPDDKRKACGRQLTQNFLSHTGPDLIPEVPRQLVTNCTQRLEQGPCKDLFQELTRLTHEYLSVAPFADYLDSIYFNRFLQWKWLERQPVTKNTFRQYRVLGKGGFGEVCACQVRATGKMYACKKLEKKRIKKRKGEAMALNEKQILEKVNSRFVVSLAYAYETKDALCLVLTLMNGGDLKFHIYHMGQAGFPEARAVFYAAEICCGLEDLHRERIVYRDLKPENILLDDHGHIRISDLGLAVHVPEGQTIKGRVGTVGYMAPEVVKNERYTFSPDWWALGCLLYEMIAGQSPFQQRKKKIKREEVERLVKEVPEEYSERFSPQARSLCSQLLCKDPAERLGCRGGSAREVKEHPLFKKLNFKRLGAGMLEPPFKPDPQAIYCKDVLDIEQFSTVKGVELEPTDQDFYQKFATGSVPIPWQNEMVETECFQELNVFGLDGSVPPDLDWKGQPPAPPKKGLLQRLFSRQDCCGNCSDSEEELPTRL”: “failed”; for “MELKILVTGGNVFVPGRLNAHFSTVVYLEHKDRRIIIDPGNLSSMDELEEKFSELGISPDDITDVLFTHVHLDHIFNSVLFENATFYVHEVYKTKNYLSFGTIVGRIYSKVISSWKNVVLLKGEESLFDEKVKVFHTPWHAREHLSFLLDTENAGRVLITGDITPNRLSYYDIIKGYGSVQVKNFLDRVGRIDLLVFPHDAPLKPEVKK”: “not failed”; for “MELLFIIAAFVMGFIALKINLPPLVGFLLAGFGLHALGFQSNDALETFADLGVTLLLFSIGLKLDIKTLLAKEIWLGATLHNVFSTLFFTFALLGLKLLGINMLANIETAQLVLFGFALSFSSTVFAVKALQEKGEMNATYGTLAIGILVMQDIFAVVFLTASTGKIPEITALALFALPLFRPLFFKLLDWAGHGEMLVLYGIFLALVAGAGTFELVGMKPDLGALILGMLLAGHAKASELSKSLFNLKEVLLICFFLNIGLSAAPTISGLGLALILILLLPVKGFLYFIIINKFKFRVRTSLLASLTLFNYSEFGLIVGGLAFKMGWLPADTLVAIAIAVSISFIISAPLNNFGHTIYQRSRHWLKEHTAERLNPMDKLINPGRAQILILGMGRIGSGAYDELKEKYGDIILGIELREESAKQHQELGRNVISGDATDPDFWERILSTSHVKLVLLAMPNHQGNQFALEQLQTRNYQGQTAAIAAYNDQIDGLIEQGVDAAFNIYHEAGSGFARHVSEQLDPQFNHHKDYITH”: “failed”.
“MELNNTIATPLYKQLEKKLQQEIDSGKRPAGSRLPTENELSKAYNVSRVTVRKALAELSESGYLERKSGKGTFVAEKKLERGITNGVLGFSEMCKMMNAIPGAKIIKIALEEPSEKDIQKMSLNKDEKVLVLERVRYANGKPVLLELNKFPESFSFLFEENLTDASLYDILEQHNIILDHSRKTLDIVFADTKEAKTLGISRGYPLLRINSIIHNADNTITNLCQQLCIGDKFTFII”: the protein production entry is on record as “failed”.
As for “MELSAIGEQVFAVESIRKKRVRKGKVEYLVKWKGWPPKYSTWEPEEHILDPRLVMAYEEKEERDRASGYRKRGPKPKRLLLQRLYSMDLRSSHKAKGKEKLCFSLTCPLGSGSPEGVVKAGAPELVDKGPLVPTLPFPLRKPRKAHKYLRLSRKKFPPRGPNLESHSHRRELFLQEPPAPDVLQAAGEWEPAAQPPEEEADADLAEGPPPWTPALPSSEVTVTDITANSITVTFREAQAAEGFFRDRSGKF”, the protein production entry is recorded as “failed”.
The same measure for “MELVDRYIAAVQRELPEDKRQEIGRELKANICDQLDALAEHAELTESQIADVLQQMGHPAQVAQQFVPPTPIVASEDISLFKHTLVMVLGVLFVLQVVSGATQWLGSTEGSLFGFIRHIASGFIVDACFAFTAILLSFWSISAQGKVMFGGRCQHWQPQNLPNVGPDWQHISLSDVFSDLATYLFLLLLIWNNLWMSADQLAARSVIFSANAQQLLQWFSPVILLSLLNTLWQLLRRLWTAPLLLANAGVNLAYALCLVFLAFSSPLLQYQGGEVEGIFTLQQLDTWLGHALLVTALFPGYECIRDMLRWRKLTAH”: “failed”.
